The record followed here is paper doi:10.1101/2025.04.22.649955.

The target in assay [1] is GluA1(ΔNTD)-TARP2.
Assay [2] has as its target GluA1-TARP2.
The target of assay [3] is SynGAP[PSD95] condensates (mCherry-SynGAP with PSD95-mGFP) (human | rat) (UniProt P31016).
Chain of UniProt P31016 (P31016 whole entry, looked up): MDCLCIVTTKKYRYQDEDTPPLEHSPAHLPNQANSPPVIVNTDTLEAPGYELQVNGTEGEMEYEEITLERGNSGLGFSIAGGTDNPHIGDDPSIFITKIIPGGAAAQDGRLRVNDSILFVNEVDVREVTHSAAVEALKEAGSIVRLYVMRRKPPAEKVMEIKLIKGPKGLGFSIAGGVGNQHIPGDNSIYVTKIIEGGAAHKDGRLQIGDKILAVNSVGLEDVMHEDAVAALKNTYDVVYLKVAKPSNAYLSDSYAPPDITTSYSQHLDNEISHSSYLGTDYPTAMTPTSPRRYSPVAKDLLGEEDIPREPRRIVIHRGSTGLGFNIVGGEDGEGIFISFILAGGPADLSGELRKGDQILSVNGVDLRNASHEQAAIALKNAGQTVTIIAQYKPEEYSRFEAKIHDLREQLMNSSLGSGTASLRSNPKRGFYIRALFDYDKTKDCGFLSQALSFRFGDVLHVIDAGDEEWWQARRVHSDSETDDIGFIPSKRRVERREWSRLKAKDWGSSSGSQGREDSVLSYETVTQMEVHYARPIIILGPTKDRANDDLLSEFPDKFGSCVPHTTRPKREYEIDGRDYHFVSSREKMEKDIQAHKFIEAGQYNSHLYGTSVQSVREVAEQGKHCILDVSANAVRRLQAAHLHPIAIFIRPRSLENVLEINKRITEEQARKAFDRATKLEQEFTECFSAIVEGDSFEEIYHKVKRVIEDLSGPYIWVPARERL

For the substance GluA1(ΔNTD)-TARP2, in assay [1], the percent of molecules as dimers was 45%, the percent of molecules as monomers is 41% and the percent of molecules as tetramers worked out at 14%.
For GluA1-TARP2, in assay [2], the percent of molecules as dimers stood at 39%, the percent of molecules as monomers was 19%, the percent of molecules as tetramers was 2% and the percent of molecules as trimers is 18%.
The substance “Halo7-tagged wild-type Neuroligin1 (from UniProt Q99K10 46-843) (receptor)” registered a fold of the fraction of the τ2 dwell-lifetime component against mNlg1 in assay [3] of 2.5 fold.
